Data on 24 molecules can be found in patent publication US20250382355A1 (Merck Sharp & Dohme, published 2025).

In test [1] the target is T1, SARS-CoV-2 prefusion-stabilized spike protein (SARS-CoV-2-PreS) (SARS-CoV-2, UniProt P0DTC2 14-1208). In words: Biacore, apparent affinity. In general terms: Surface plasmon resonance follows binding to a sensor surface in real time, without labels.
In test [2] the target is T1, SARS-CoV-2 prefusion-stabilized spike …. In words: ELISA. (ELISA stands for enzyme-linked immunosorbent assay.)
For test [3], the target named is T2, Biotinylated CoV2 Spike ECD PreS-AVI protein (SARS-CoV-2, UniProt P0DTC2 14-1208). As to the kind of experiment: Octet binning; competitor 7A9.
The target in test [4] is T2, Biotinylated CoV2 Spike ECD PreS-AVI …. In words: Octet binning; competitor 8E9. Background: Biolayer interferometry detects binding as a change in optical thickness at a sensor tip.
Test [5] has the same target. As to the kind of experiment: Octet binning; competitor 9B2.
The target is the same in test [6]. As to the kind of experiment: Octet binning; competitor 11F8.
For test [7] the target is unchanged. As to the kind of experiment: Octet binning; competitor 13C8.
For test [8] the target is unchanged. In words: Octet binning; competitor 15H1.
Test [9] has the same target. As to the kind of experiment: Octet binning; competitor 15H7.
Test [10] shares this target. In words: Octet binning; competitor 1A11.
The target is the same in test [11]. As to the kind of experiment: Octet binning; competitor Std-A.
The target is the same in test [12]. As to the kind of experiment: Octet binning; competitor Std-B.
The target is the same in test [13]. As to the kind of experiment: Octet binning; competitor Std-D.

Substitutions are numbered along the chain they refer to. Bounds are passed on as bounds.

B1: 7A9 VHH (VHH)
VHH: QVQLVESGGGLVQAGGSLRLSCSASGGTASRSAMGWFRQAPGKEREFVAGISRRNSGSTYVADSYEDSVKGRFTISRDNAKNTIYLQMNSLKPEDTAVYYCAAEPTLGWYVPRRSVEYEYWGQGTQVTVSS
For the molecule B1, the Kd in test [1] turned out to be 0.22 nM.

B2: 15H1 VHH (VHH)
VHH: QVQLVESGGGLAQAGGSLRLSCASSGLIFSGSAMGWFRQAPGKEREFVGVISWNGRTTYADSVKGRFTISRDDAVNMVWLQMNNLKPEDTAVYYCAADHLNYGSGDVNPRTYDYWGQGTQVTVSS
Take B2: the Kd in [1] worked out at 0.6 nM.

B3: 5D7 VHH (VHH)
VHH: QVQLVESGGGLVQAGGSLRLSCAASGRTGSRYIMGWFRQAPGKEREFVAAINWRGDSTYYADSVKGRFTIARDNAKNTAYLQMNSLKPEDTAVYYCVADRGESYYYTRSTEYTYWGQGTQVTVSS
As to B3, in test [1], the Kd amounted to 1.5 nM.

B4: 1E4 VHH (VHH)
VHH: QVLLVESGGGLVQAGGLLRLACSASGRTFTENVMGWFRQAPGKEREFVAAINWNTGSTYYSDSRKGRFTISKDNAKNTMFLQINNLKPEDTAVYYCGGTSSSYYYIGEFIPDYWGQGTQVTVSS
Regarding B4, the Kd in test [1] came out at 0.25 nM.

B5: 1A11 VHH (VHH)
VHH: QVQLVESGGGLVQAGGSLRLSCEVSGSIYSINSMGWYRQAPGKQRELVAGIVSDGRINYADSVKGRFTISRAKNTVYLQMNSLKPEDTAVYYCAADRAFVYAGDYDYLGQGTQVTVSS
Consider B5, for which the Kd in test [1] was < 0.2 nM.

B6: 13C8 VHH-Fc (Fc fusion)
chain: QVQLVESGGGLVQAGGSLRLSCAASGRTVNKYMTGWFRQTPGKEREFVASIDWSSTTTHYANSVKGRFTISRDKVKNTVYLQMNGLKPEDTAVYYCAAHQDSSYGYTILPIDYDSWGQGTQVTVSS
For orientation: EC50 means the concentration that produces a half-maximal response. A lower EC50 goes with greater potency. B6: the 50% effective concentration (EC50) in [2] was determined as 0.09 nM. For the same molecule, in test [1], the Kd is < 0.2 nM. For the same molecule, the binning response in test [3] stood at 0.37; in test [4], 0.09; in test [5], 0.11; in [6], 0.11; in test [7], 0.1; in test [8], 0.11. The binning response in test [9] was found to be 0.1; in test [10] it was 0.11; in test [11], 0.34; in test [12] it was 0.31; in [13] it was 0.04.

B7: 13C8 VHH (VHH)
VHH: B6 chain
Take B7: the Kd in test [1] is 12 nM.

B8: 11F5 VHH (VHH)
VHH: QVQLVESGGGAVQAGDSLRLSCTASGRTFSTYAVGWFRQAPGKERELLAAITGSGRNPYYPDSLKGRFTISREYAKLPVYLQMNSLKPEDTAVYYCAARRGAIATMPLDYDHWGQGTQVTVSS
On to B8, for which, in test [1], the Kd is 8 nM.

B9: 15H7 VHH (VHH)
VHH: QVQLVESGGRLVQAGGSLRLSCAAPGRTFRNLTLGWFRQAPGKEREFVASTSWPDDEMTYYTDSVKGRFTISRDNAKNTVYLQMNSLKPEDTAVYYCAAASWSGRSTLSYDYDYWGQGTQVTVST
As for B9, the Kd in test [1] is 0.33 nM.

B10: 10B8 VHH (VHH)
VHH: QVQLVESGGGLVQPGGSLRLSCAASGITLDYYAIAWFRQAPGKEREGVSCFCSSDGDIRYADSVKGRFTISRDNAKNTVYLQMNSLKPEDTAVYYCATERVYSSTWFFHRYSELDFGSWGRGTQVTVSS
On to B10, for which, in [1], the Kd was < 0.2 nM.

B11: 3D4 VHH (VHH)
VHH: QVQLVESGGGLVQPGGSLRLSCAASGFTLDLNSIGWFRQAPGKEREGVSCISPSGSRMHYADSVKGRFTISRDNAKNTVYLQMNSLKPEDTAVYYCATGSPSYHYCSMYGLEYDSWGQGTQVTVPS
Regarding B11, the Kd in test [1] is < 0.2 nM.

B12: 19C10 VHH (VHH)
VHH: B11 VHH with G55A, R57S, M58T, S100T, S115D, P125S
Take B12: the Kd in [1] is < 50 nM.

B13: 19E10 VHH (VHH)
VHH: QVQLVESGGGLVQPGGSLRLSCVASGSTISINSMGWYRQAPGKAREMVATITNDGPIKYADPVKGRFTISRDNPKNTVYLQMNSLKPEDTAVYYCVADRAYWLAGEWEYWGQGTQVTVSS
As for B13, the Kd in [1] was 0.73 nM.

B14: 5A6 VHH (VHH)
VHH: QVQLVESGGGLAQAGGSLRLSCATSGLTFSMSAMGWFRQAPGNEREFVGVINWNGGSSRYADSVRGRFTISRDNAKNTVYLQMNSLKPEDTGVYYCAADALNIGTGEVNPRLYDYWGQGTQVMVSS
With B14, in test [1], the Kd came to 0.46 nM.

B15: 20D11 VHH (VHH)
VHH: QVQLVESGGGLVQAGGSLRLSCAASGRTSSIYSVGWFRQAPGKERELVAGITWSGGTTYYSDSVKGRFTISRDNAKNTVNLQMNNLKPEDTAIYYCAVDRYSMTMSARDYDYWGQGTQVTVSS
Turning to B15, in test [1], the Kd was determined as 2.2 nM.

B16: 5G11 VHH (VHH)
VHH: B15 VHH with S29F, S33A, E46D, L47F, N80Y, R100T, M105L, D109S
For the molecule B16, the Kd in test [1] was 93 nM.

B17: 14F3 VHH (VHH)
VHH: B15 VHH with S33G, G50L, R72K, N80F, R100T, D111E
As for B17, the Kd in test [1] was determined as 3 nM.

B18: 19B8 VHH (VHH)
VHH: QVQLVESGGGLVQAGGSLRLSCAASGRTFTNYAMGWFRQAPGKEREFVAAISWSGGGTNYADSVKGRFTISRDNAKNTVYLQMNSPKPEDTAVYYCATTLGYYGSSSRLYEYWGQGTQVTVSS
With B18, in test [1], the Kd is 87 nM.

B19: 8E9 VHH (VHH)
VHH: QVQLVESGGGLVEAGGSLRLSCVASGSSSSINAMGWYRQAPGKQRELVASISHDGETKYANSVKGRFTISRGNAKNTIYLQMNSLKPEDTAVYYCVGDVAWVVVAGEYDYWGQGTQVTVSS
On to B19, for which the Kd in [1] was 5.7 nM.

B20: 6A1 VHH (VHH)
VHH: QVQLVESGGGLVQAGGSLRLSCTASGNIFSVNVMGWHRQAPGKRRELVAALTNDGRRNYADSVKGRFTISRDNAKNTIYLEMNSLKPEDTAVYYCGTGTLESGFNSWGQGLQVTVSS
On to B20, for which the Kd in test [1] was > 500 nM.

B21: 9B2 VHH (VHH)
VHH: QVQLVESGGGLVQPGGSLRLSCAASGFTLDNYAIGWFRQAPGKEREGVSCISSSDGDTQYADSVKGRFTISRDNAKNTVYLQMNSLKPEDTAVYYCAVEKVYARSWFFHLCSELDFGSWGQGTQVTVSS
B21: the Kd in test [1] was 0.61 nM.

B22: 16H7 VHH (VHH)
VHH: QVQLVESGGGLVQAGGSLRLSCAASGRAFSKDTMGWFRQAPGKEREFVAVISASGDSTYYADFVKGRFTISRDNAKNTEYLQMNSLKPEDTAVYHCAADGARAYYSINAHRYSWAYNYWGQGTQVTVSS
As for B22, in test [1], the Kd is 230 nM.

B23: 11F8 VHH-Fc (Fc fusion)
chain: QVQLVESGGGLVQAGGSLRLSCAASGRTVGYYAVGWFRQAPGKERDFVAAISWSGRNTNYADSVTGRFTIFRDNAKNTVDLQMNSLKPEDTAVYYCAADYWNYGSGSEVPNNYDTWGQGTQVTVSS
In test [2], B23 returned an EC50 of 0.19 nM. The Kd in test [1] is < 0.2 nM. Also, the binning response in [3] is 0.35; in test [4] it was 0.12; in test [5], 0.13; in test [6] it was 0.14; in test [7], 0.15; in test [8], 0.15. For the same molecule, the binning response turned out to be 0.14 in test [9]; 0.12 in test [10]; 0.17 in test [11]; 0.29 in test [12]; 0.08 in test [13].

B24: 11F8 VHH (VHH)
VHH: B23 chain
On to B24, for which the Kd in test [1] was 0.95 nM.
